According to the RNAGym collection of RNA variant scans (doi:10.1093/molbev/msab373):

B1: Azoarcus group I ribozyme (parent)
chain: GUGCCUUGCGCCGGGAAACCACGCAAGGGAUGGUGUCAAAUUCGGCGAAACCUAAGCGCCCGCCCGGGCGUAUGGCAACGCCGAGCCAAGCUUCGGCGCCUGCGCCGAUGAAGGUGUAGAGACUAGACGGCACCCACCUAAGGCAAACGCUAUGGUGAAGGCAUAGUCCAGGGAGUGGCGAAAGUCACACAAACCGG

Variants of: B1
Test: reverse-splicing fitness (ratio to wild type); higher = more active; in vitro selection; Mg2+ level not given
In short: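 An in vitro group I ribozyme library with randomized positions was T7-transcribed and gel-purified. In triplicate, 10 pmol RNA in EPPS pH 7.5 was reacted with 50 pmoles of a 30-nt RNA substrate for 1 h at 37 °C across several added MgCl2 levels (1–48 mM), then stopped with EDTA. Products were reverse transcribed from a substrate-complementary primer, PCR-amplified and sequenced (HiSeq 4000). Fitness is a variant's read proportion after selection over that before, normalised to wild type.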

Variant | reverse-splicing fitness
C82U A111U A120C A145C C150G C169G | 0.00637
C82U A111U A120C A145C C150G C169U | 0.00848
C82U A111U A120C A145C C150G C169A | 0.00832
C82U A111G C150U C169A U176G | 0.00543
C82U A111G C150U C169A U176C | 0.0135
C82U A111G C150U C169A U176A | 0.0145
C82U A111U A120C A145C C150G C169A U176C | 0.00591
C82U A111U A120C A145C C150G C169A U176A | 0.00641
C82U A111U A120C A145C C150G C169A U176G | 0.00527
C82U A111U A120C A145C U176A | 0.0125
C82U A111U A120C A145C U176C | 0.0132
C82U A111U A120C A145C U176G | 0.00539
C82U A111U A120C A145C C150U U176C | 0.00856
C82U A111U A120C A145C C150U U176G | 0.00423
C82U A111U A120C A145C C150U U176A | 0.00801
C82U A111G C169U U176C | 0.0132
C82U A111G C169U U176G | 0.00449
C82U A111G C169U U176A | 0.0145
C82U A111G U176C | 0.274
C82U A111G U176A | 0.193
C82U A111G U176G | 0.0517

Variant | reverse-splicing fitness
C82U A111U A120C | 0.0288
C82U A111U A120C A145C C150G C169U U176G | 0.00477
C82U A111U A120C A145C C150G C169U U176C | 0.0116
C82U A111U A120C A145C C150G C169U U176A | 0.0108
C82U A111U A120C A145G C150G | 0.00928
C82U A111U A120C A145G C150A | 0.0116
C82U A111G C150G C169G U176A | 0.0075
C82U A111G C150G C169G U176G | 0.00525
C82U A111G C150G C169G U176C | 0.00418
C82U A111G C169A | 0.0072
C82U A111G C169U | 0.0128
C82U A111G C169G | 0.0092
C82U A111U A120C A145C C150A C169G U176C | 0.0108
C82U A111U A120C A145C C150A C169G U176G | 0.00543
C82U A111U A120C A145C C150A C169G U176A | 0.0195
C82U A111U A120C A145G C150G C169A | 0.00919
C82U A111U A120C A145C C150U C169G U176G | 0.00538
C82U A111U A120C A145C C150U C169G U176A | 0.0175
C82U A111U A120C A145C C150U C169G U176C | 0.00936
C82U A111G C150A C169U U176C | 0.0161
C82U A111G C150A C169U U176G | 0.00684

Variant | reverse-splicing fitness
C82U A111G C150A C169U U176A | 0.0155
C82U A111U A120C A145C C169G U176A | 0.0202
C82U A111U A120C A145C C169G U176C | 0.0105
C82U A111U A120C A145C C169G U176G | 0.00439
C82U A111G A145U C169U U176A | 0.012
C82U A111G A145U C169U U176C | 0.00988
C82U A111G A145U C169U U176G | 0.00468
C82U A111G C150U C169U | 0.0108
C82U A111G C150U C169G | 0.0092
C82U A111G C150U C169A | 0.00959
C82U A111G A145U C169G U176A | 0.00999
C82U A111G A145U C169G U176G | 0.00474
C82U A111G A145U C169G U176C | 0.00876
C82U A111G C150G | 0.0267
C82U A111G C150A | 0.0385
C82U A111G C150U | 0.224
C82U A111U A120C A145C C169U U176G | 0.00412
C82U A111U A120C A145C C169U U176A | 0.013
C82U A111U A120C A145C C169U U176C | 0.0109
C82U A111U A120C A145G C150A U176G | 0.00675
C82U A111U A120C A145G C150A U176A | 0.0105

Variant | reverse-splicing fitness
C82U A111U A120C A145G C150A U176C | 0.0207
C82U A111U A120C A145C C150U C169G | 0.00639
C82U A111U A120C A145C C150U C169A | 0.00709
C82U A111U A120C A145C C150U C169U | 0.00899
C82U A111U A120C A145C C150A C169A U176A | 0.00878
C82U A111U A120C A145C C150A C169A U176C | 0.0057
C82U A111U A120C A145C C150A C169A U176G | 0.00538
C82U A111G A145U C150U U176G | 0.0347
C82U A111G A145U U176A | 0.204
C82U A111G A145U U176G | 0.0781
C82U A111G A145U U176C | 0.258
C82U A111U A120C A145C C150A C169U U176C | 0.0112
C82U A111U A120C A145C C150A C169U U176G | 0.00541
C82U A111U A120C A145C C150A C169U U176A | 0.0149
C82U A111G C150G U176G | 0.00391
C82U A111G C150G U176A | 0.00888
C82U A111G C150G U176C | 0.0178
C82U A111G C150A C169A U176A | 0.0183
C82U A111G C150A C169A U176C | 0.0195
C82U A111G C150A C169A U176G | 0.00533
